From US20250114463A1, “LIVER-TARGETED DRUG AND USE THEREOF” (HANMI PHARM. CO., LTD., priority 2021, published 2025)
Bridges are numbered along the chain shown (N, C = ends). Where no end group is shown, it is not given here. [ ]: non-standard residue; d: D form. The star is where a group is joined. Acetyl(2-(4-imidazolyl)) = O=C(Cc1c[nH]cn1)*; Aib = CC(C)(N)C(=O)O

Experiments:
Assay in all cases: cell-based or functional assay
[1] = biological target: human GLP-1 receptor (human, UniProt P43220 24-463)
[2] = biological target: human GCG receptor (human, UniProt P47871 26-477)
human GCG receptor, sequence (P47871 26-477): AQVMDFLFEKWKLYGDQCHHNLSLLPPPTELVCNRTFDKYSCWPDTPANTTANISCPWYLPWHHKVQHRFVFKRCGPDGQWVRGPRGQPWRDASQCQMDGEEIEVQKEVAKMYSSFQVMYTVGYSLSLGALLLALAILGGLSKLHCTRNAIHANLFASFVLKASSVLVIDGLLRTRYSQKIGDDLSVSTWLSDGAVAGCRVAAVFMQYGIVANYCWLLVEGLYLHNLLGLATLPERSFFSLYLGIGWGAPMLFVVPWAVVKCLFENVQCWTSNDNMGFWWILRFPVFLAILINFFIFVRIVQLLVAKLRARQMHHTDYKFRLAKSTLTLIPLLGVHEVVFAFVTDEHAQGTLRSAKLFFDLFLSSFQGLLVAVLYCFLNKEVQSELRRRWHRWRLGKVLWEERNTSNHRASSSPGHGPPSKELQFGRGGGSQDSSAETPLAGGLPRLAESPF

[3] = biological target: T1, human GIP receptor (human, UniProt P48546 22-466)
T1 sequence (looked up): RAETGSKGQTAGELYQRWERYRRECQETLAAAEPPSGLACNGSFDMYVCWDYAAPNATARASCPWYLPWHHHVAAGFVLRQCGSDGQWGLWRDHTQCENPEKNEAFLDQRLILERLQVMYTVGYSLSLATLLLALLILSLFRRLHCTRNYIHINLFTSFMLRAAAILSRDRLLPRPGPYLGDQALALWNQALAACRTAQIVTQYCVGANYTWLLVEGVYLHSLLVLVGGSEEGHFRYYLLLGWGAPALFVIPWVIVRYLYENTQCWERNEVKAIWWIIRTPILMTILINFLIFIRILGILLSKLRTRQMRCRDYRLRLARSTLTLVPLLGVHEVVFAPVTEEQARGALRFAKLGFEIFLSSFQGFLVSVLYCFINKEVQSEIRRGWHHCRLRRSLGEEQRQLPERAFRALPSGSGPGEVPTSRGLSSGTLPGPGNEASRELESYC

Row | Binder | in vitro Activity Compared to Native Peptide (%), vs GLP-1 [1] | in vitro Activity Compared to Native Peptide (%), vs Glucagon [2] | in vitro Activity Compared to Native Peptide (%), vs GIP [3]
1 | [Acetyl(2-(4-imidazolyl))][Aib]QGTFTSDYSIAMDEIHQKDFVNWLLNTKC (bridge 16-20; not fully specified (C-terminus)) [triple agonist of SEQ ID NO: 94] | 0.5% | < 0.1% | < 0.1%
2 | [Acetyl(2-(4-imidazolyl))][Aib]EGTFTSDYSIAMDEIHQKDFVDWLLAEKC (bridge 16-20; not fully specified (C-terminus)) [triple agonist of SEQ ID NO: 91] | 31.9% | 16.8% | 0.3%
3 | [Acetyl(2-(4-imidazolyl))][Aib]QGTFTSDYSIAMDEIHQKDFVNWLLAQKC (bridge 16-20; not fully specified (C-terminus)) [triple agonist of SEQ ID NO: 92] | 0.8% | < 0.1% | 0.4%
4 | Y[Aib]QGTFTSDYSKYLDEKRAKEFVQWLLDCHPSSGQPPPS (bridge 16-20; not fully specified (C-terminus)) [triple agonist of SEQ ID NO: 97] | 10.5% | 62.8% | 2.6%
5 | Y[Aib]QGTFTSDYSKALDEKAAKEFVQWLLDQHPSSGQPPPSC (bridge 16-20; not fully specified (C-terminus); also: ring type not given here) [triple agonist of SEQ ID NO: 100] | 42.2% | 12.7% | 118%
6 | [Acetyl(2-(4-imidazolyl))][Aib]QGTFTSDYSKYLDEKRQKEFVNWLLAQKC (bridge 16-20; not fully specified (C-terminus)) [triple agonist of SEQ ID NO: 93] | 5.7% | 0.3% | 0.7%
7 | Y[Aib]QGTFTSDYSKALDEKAAKEFVNWLLDHHPSSGQPPPSC (bridge 16-20; not fully specified (C-terminus)) [triple agonist of SEQ ID NO: 98] | 28.1% | 8.2% | 47.1%
8 | H[Aib]QGTFTSDVSKYLDGQAAQEFVAWLLAGGGPSSGAPPPSC-NH2 [triple agonist of SEQ ID NO: 10] | 46% | < 0.1% | < 0.1%
9 | Y[Aib]QGTFTSDYSKALDEKAAKDFVNWLLDHHPSSGQPPPSC (bridge 16-20; not fully specified (C-terminus)) [triple agonist of SEQ ID NO: 99] | 20.9% | 14.9% | 57.7%
10 | Y[Aib]QGTFTSDYSKYLDEKRAKEFVQWLLCHHPSSGQPPPS (bridge 16-20; not fully specified (C-terminus)) [triple agonist of SEQ ID NO: 95] | 2.1% | 0.4% | < 0.1%
11 | Y[Aib]QGTFTSDYSKYLDEKRAKEFVQWLLDHCPSSGQPPPS-NH2 (bridge 16-20) [triple agonist of SEQ ID NO: 96] | 34.4% | 195% | 5.2%
